From patent publication US20220324957A1 (OPSIDIO, published 2022)
Changes are numbered by the printed parent chain. One block for each binder: values may come before it.

Experiments:
[1] = biological target: T1, human stem cell factor isoform SCF248 (hSCF248) (human, UniProt P21583 26-273); assay: binding score on Sl/Sl4 hSCF248 cells
T1 construct: also called soluble SCF

[2] = biological target: T1, human stem cell factor isoform SCF248 …; assay: flow cytometry, directly labelled antibody on Sl/Sl4 hSCF248 cells
Experimental: Binding of the labeled antibody to the cells was assessed by flow cytometry.

T1 sequence (P21583 26-273 limits assumed): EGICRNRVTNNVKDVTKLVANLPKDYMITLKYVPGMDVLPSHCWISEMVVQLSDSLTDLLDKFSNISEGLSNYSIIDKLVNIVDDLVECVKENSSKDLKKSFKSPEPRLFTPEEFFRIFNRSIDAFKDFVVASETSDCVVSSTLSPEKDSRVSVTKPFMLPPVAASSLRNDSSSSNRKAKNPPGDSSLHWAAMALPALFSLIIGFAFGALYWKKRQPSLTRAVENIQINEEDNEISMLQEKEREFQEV

binding result [1]: binds
B1: humanized 5H10 VH3/VK3 (antibody, human IgG4, V domains shown)
VH: QVQLVQSGAEVKKPGSSVKVSCKSSGYAFSSYWMNWVRQRPGQGLEWIGQIYPGDGDTHYNGKFKGKATLTADKSTSTAYMELSSLRSEDTAVYFCSSSNWVGSYWGQGTLVTVSS
VL: DVVMTQSPLSLPVTLGQPASISCKSSQSLLESDGKTYLNWLQQRPGQSPRRLIYLVSRLDSGVPDRFSGSGSGTDFTLKISRVEAEDVGVYYCWQGTHLPQTFGGGTKVEIK
notes: Only variable domains are tied to the name; Humanized from the chimeric antibody, which has a human IgG4 backbone and a kappa light chain

binding result [1]: binds
B2: humanized 5H10 VH1/VK3 (antibody, human IgG4, V domains shown)
VH: B1 VH with V11L, V20I, R38K, R87T, T91S
VL: B1 VL
notes: as for B1

binding result [1]: binds
B3: humanized 5H10 VH4/VK3 (antibody, human IgG4, V domains shown)
VH: B1 VH with K67R, A68V, L70I
VL: B1 VL
notes: as for B1

binding result [1]: binds
B4: 5H10 VH0/VK0 (chimeric) (antibody, V domains shown)
VH: QVQLQQSGAELVRPGSSVKISCKSSGYAFSSYWMNWVKQRPGQGLEWIGQIYPGDGDTHYNGKFKGKATLTADKSSSTAYMQLSRLTSEDSAVYFCSSSNWVGSYWGQGTLVTVSA
VL: not shown
notes: also called chimeric 5H10

binding result [2]: binds
B5: murine 5H10 antibody (antibody, V domains shown)
VH: B4 VH
VL: not shown
notes: Mouse hybridoma monoclonal with a kappa light chain; It was conjugated to a fluorescent marker for flow cytometry and to pHrodo red for the internalisation assay; also called OpSCF; m5H10

binding result [1]: binds
B6: humanized 5H10 VH3/VK2 (antibody, human IgG4, V domains shown)
VH: B1 VH
VL: B1 VL with S68T
notes: as for B1

binding result [1]: binds
B7: humanized 5H10 VH2/VK3 (antibody, human IgG4, V domains shown)
VH: B1 VH with V20I, R38K
VL: B1 VL
notes: as for B1

binding result [1]: binds
B8: humanized 5H10 VH4/VK2 (antibody, human IgG4, V domains shown)
VH: B1 VH with K67R, A68V, L70I
VL: B1 VL with S68T
notes: as for B1
